Here are results for 5 molecules from US20150079113A1 (MIT, published 2015).

B1: GFP-tagged EVH1 domain of Mena (other, UniProt Q03173 1-112, looked up)
chain: MSEQSICQARAAVMVYDDANKKWVPAGGSTGFSRVHIYHHTGNNTFRVVGRKIQDHQVVINCAIPKGLKYNQATQTFHQWRDARQVYGLNFGSKEDANVFASAMMHALEVLN
notes: domain: EVH1 domain; not shown: GFP tag
B2: Purified His-tagged LERER repeat protein (His-LERER) (other, mouse, UniProt Q03173 175-252, looked up)
chain: LERERMERERLERERLERERLERERLEQEQLERQRQEREHVERLERERLERLERERQERERERLEQLEREQVEWERER
notes: domain: LERER repeat; Expressed and purified from E. coli (pQE80L-His-LERER); also called LERER repeat region of Mena; not shown: His tag of the pQE80L vector
B3: GFP-MenaΔLERER (other, UniProt Q03173-3 1-541, looked up)
chain: MSEQSICQARAAVMVYDDANKKWVPAGGSTGFSRVHIYHHTGNNTFRVVGRKIQDHQVVINCAIPKGLKYNQATQTFHQWRDARQVYGLNFGSKEDANVFASAMMHALEVLNSQEAGPTLPRQNSQLPAQVQNGPSQEELEIQRRQLQEQQRQKERMSNAAAPASAETPLNPELGDSSASEPGLQAASQPAESPTPQGLVLGPPAPPPPPPLPSGPAYASALPPPPGPPPPPPLPSTGPPPPPPPPPPLPNQAPPPPPPPPAPPLPASGIFSGSTSEDNRPLTGLAAAIAGAKLRKVSRVEDGSFPGGGNTGSVSLASSKADAGRGNGPLPLGGSGLMEEMSALLARRRRIAEKGSTIETEQKEDRNEDAEPITAKAPSTSTPEPTRKPWERTNTMNGSKSPVISRPKSTPSSQPSANGVQTEGLDYDRLKQDILDEMRKELAKLKEELIDAIRQELSKSNTA
notes: Expressed in MVD7 cells; also called Mena mutant lacking the LERER repeat; not shown: GFP tag
B4: β1 integrin (endogenous) (receptor, mouse, UniProt P09055 21-798, looked up)
chain: QTDKNRCLKANAKSCGECIQAGPNCGWCTNTTFLQEGMPTSARCDDLEALKKKGCQPSDIENPRGSQTIKKNKNVTNRSKGMAEKLRPEDITQIQPQQLLLKLRSGEPQKFTLKFKRAEDYPIDLYYLMDLSYSMKDDLENVKSLGTDLMNEMRRITSDFRIGFGSFVEKTVMPYISTTPAKLRNPCTSEQNCTSPFSYKNVLSLTDRGEFFNELVGQQRISGNLDSPEGGFDAIMQVAVCGSLIGWRNVTRLLVFSTDAGFHFAGDGKLGGIVLPNDGQCHLENNVYTMSHYYDYPSIAHLVQKLSENNIQTIFAVTEEFQPVYKELKNLIPKSAVGTLSGNSSNVIQLIIDAYNSLSSEVILENSKLPDGVTINYKSYCKNGVNGTGENGRKCSNISIGDEVQFEISITANKCPNKESETIKIKPLGFTEEVEVVLQFICKCNCQSHGIPASPKCHEGNGTFECGACRCNEGRVGRHCECSTDEVNSEDMDAYCRKENSSEICSNNGECVCGQCVCRKRDNTNEIYSGKFCECDNFNCDRSNGLICGGNGVCRCRVCECYPNYTGSACDCSLDTGPCLASNGQICNGRGICECGACKCTDPKFQGPTCETCQTCLGVCAEHKECVQCRAFNKGEKKDTCAQECSHFNLTKVESREKLPQPVQVDPVTHCKEKDIDDCWFYFTYSVNGNNEAIVHVVETPDCPTGPDIIPIVAGVVAGIVLIGLALLLIWKLLMIIHDRREFAKFEKEKMNAKWDTGENPIYKSAVTTVVNPKYEGK
notes: whole, on cells
B5: α5 integrin (endogenous) (receptor, mouse, UniProt P11688 45-1053, looked up)
chain: FNLDAEAPAVLSGPPGSLFGFSVEFYRPGRDGVSVLVGAPKANTSQPGVLQGGAVYVCPWGTSPIQCTTIQFDSKGSRILESSLYSAKGEEPVEYKSLQWFGATVRAHGSSILACAPLYSWRTEKDPQNDPVGTCYLSTENFTRILEYAPCRSDFGSAAGQGYCQGGFSAEFTKTGRVVLGGPGSYFWQGQILSATQEQISESYYPEYLINPVQGQLQTRQASSVYDDSYLGYSVAVGEFSGDDTEDFVAGVPKGNLTYGYVTVLNGSDIHSLYNVSGEQMASYFGYAVAATDTNGDGLDDLLVGAPLLMERTADGRPQEVGRVYIYLQRPAGIDPTPTLTLTGQDEFSRFGSSLTPLGDLDQDGYNDVAIGAPFGGEAQQGVVFIFPGGPGGLSTKPSQVLQPLWAAGRTPDFFGSALRGGRDLDGNGYPDLIVGSFGVDKALVYRGRPIISASASLTIFPSMFNPEERSCSLEGNPVSCINLSFCLNASGKHVPNSIGFEVELQLDWQKQKGGVRRALFLTSKQATLTQTLLIQNGAREDCREMKIYLRNESEFRDKLSPIHIALNFSLDPKAPMDSHGLRPVLHYQSKSRIEDKAQILLDCGEDNICVPDLQLDVYGEKKHVYLGDKNALNLTFHAQNLGEGGAYEAELRVTAPLEAEYSGLVRHPGNFSSLSCDYFAVNQSRQLVCDLGNPMKAGTSLWGGLRFTVPHLQDTKKTIQFDFQILSKNLNNSQSNVVSFPLSVEAQAQVSLNGVSKPEAVIFPVSDWNPQDQPQKEEDLGPAVHHVYELINQGPSSISQGVLELSCPQALEGQQLLYVTKVTGLSNCTSNYTPNSQGLELDPETSPHHLQKREAPGRSSTASGTQVLKCPEAKCFRLRCEFGPLHRQESRSLQLHFRVWAKTFLQREYQPFSLQCEAVYEALKMPYQILPRQLPQKKLQVATAVQWTKAEGSNGVPLWIIILAILFGLLLLGLLIYVLYKLGFFKRSLPYGTAMEKAQLKPPATSDA
notes: whole, on cells; Present in cells as the α5β1 heterodimer; detected by immunofluorescence or immunoprecipitated from lysates; also called endogenous α5; alpha5 integrin

The target of assay [1] is B5. Kind of assay: recruitment of α5 to mitochondria in cells expressing FP4-Mito, immunofluorescence.
Method: Microscopy—Cells were fixed in 4% paraformaldehyde in PHEM buffer warmed to 37° C. for 20 minutes. Cells were permeabilized in 0.2% TX-100 and blocked in 10% Donkey Serum. […] (Abcam ab25247), integrin αv [RMV-7] (Abcam ab63490), integrin α6 [GoH3] […] F-actin was stained with AlexaFluor Phalloidin (Invitrogen). Z series of images were taken on an Olympus microscope with a 60× plan apo objective. Images were deconvolved using Deltavision Softworx software.
The next assay deals with T1, Purified GST (UniProt P08515 1-218 = GST).
T1 construct: Control bait in the pull-down assay
In words: GST pull-down with purified proteins, western blot with anti-His. For orientation: In western blotting, separated proteins are transferred to a membrane and probed.

Assay [2] deals with B5. Kind of assay: cell-based or functional assay.
In assay [3] the target is B5. In words: recruitment to mitochondria in cells expressing FP4-Mito, immunofluorescence.
Method: Microscopy—Cells were fixed in 4% paraformaldehyde in PHEM buffer warmed to 37° C. for 20 minutes. Cells were permeabilized in 0.2% TX-100 and blocked in 10% Donkey Serum. […] (Abcam ab25247), integrin αv [RMV-7] (Abcam ab63490), integrin α6 [GoH3] […] F-actin was stained with AlexaFluor Phalloidin (Invitrogen).
Assay [4] has as its target p34 subunit of Arp2/3 (endogenous) (UniProt Q9CVB6 1-300). Kind of assay: α5 immunoprecipitation from NIH3T3 cell lysates, western blot.
From the text: To determine if endogenously expressed Mena and α5 integrin form complexes within cells, α5 integrin was immunoprecipitated from NIH3T3 cell lysates followed by Western blot analysis (FIG. 2B).
Western Blotting/Immunoprecipitation. Standard procedures were used for protein electrophoresis, western blotting and immunoprecipitations. Western blots were developed using HRP secondary antibodies and ECL reagent (Amersham). […] Beads were washed three times in lysis buffer, and proteins were eluted in sample buffer.

T1 sequence (P08515 whole entry): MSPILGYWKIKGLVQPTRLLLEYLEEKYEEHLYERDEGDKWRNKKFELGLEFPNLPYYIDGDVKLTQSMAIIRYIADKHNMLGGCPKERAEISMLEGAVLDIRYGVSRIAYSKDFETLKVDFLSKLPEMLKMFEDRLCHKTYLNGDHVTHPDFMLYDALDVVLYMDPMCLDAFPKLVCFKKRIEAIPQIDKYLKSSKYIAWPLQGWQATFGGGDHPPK
Method for Purified GST: After incubation, GST- and GST-α5 beads containing the His-LERER bound fraction were recovered and analyzed by western blotting along with aliquots of unbound protein from the supernatant.
Binding Assays: GST-α5 integrin constructs and His-tagged variants of the LERER repeat region were expressed and purified from E. Coli. 10 nM α5 integrin cytoplasmic tail was immobilized on Glutathione beads and incubated for 1 hour, 4° C. with 200 nM His-LERER variants at constant agitation in PBS with 0.1% TritonX-100 and 2 mM βME. Beads were washed three times, and proteins were eluted in sample buffer, and assayed by western blot.

With B1, the binding result with α5 integrin (endogenous) [1] is “no binding”.

With B2, the binding result with Purified GST is “no binding (tested: 200 nM His-LERER variants)”.

For B3, the “t1/2 of fluorescence recovery (FRAP) in nascent, peripheral adhesions, cells plated for 30 minutes on FN” value in the assay with α5 integrin (endogenous) [2] came out at 11.9 s. Further, the binding result in the assay with α5 integrin (endogenous) [1] was “no binding”.

As for B4, the binding result with α5 integrin (endogenous) [3] is “binds”.

Take B5: the binding result in assay [4] is “no binding”.
